Assay results as given in patent US20230255948A1 (Stanford University, published 2023).

Key:
[1] = target: α9β1 integrin on mouse RAW macrophage cells (mouse, UniProt B8JK39 29-1036; P09055 21-798); experiment: cell-based or functional assay
[2] = target: α4β1 integrin on mouse B16 melanoma cells and mouse RAW macrophage cells (mouse, UniProt Q00651 41-1039; P09055 21-798); experiment: cell-based or functional assay
α4β1 integrin on mouse B16 melanoma cells and mouse RAW macrophage cells, sequence (Q00651 41-1039, chain 1 of 2): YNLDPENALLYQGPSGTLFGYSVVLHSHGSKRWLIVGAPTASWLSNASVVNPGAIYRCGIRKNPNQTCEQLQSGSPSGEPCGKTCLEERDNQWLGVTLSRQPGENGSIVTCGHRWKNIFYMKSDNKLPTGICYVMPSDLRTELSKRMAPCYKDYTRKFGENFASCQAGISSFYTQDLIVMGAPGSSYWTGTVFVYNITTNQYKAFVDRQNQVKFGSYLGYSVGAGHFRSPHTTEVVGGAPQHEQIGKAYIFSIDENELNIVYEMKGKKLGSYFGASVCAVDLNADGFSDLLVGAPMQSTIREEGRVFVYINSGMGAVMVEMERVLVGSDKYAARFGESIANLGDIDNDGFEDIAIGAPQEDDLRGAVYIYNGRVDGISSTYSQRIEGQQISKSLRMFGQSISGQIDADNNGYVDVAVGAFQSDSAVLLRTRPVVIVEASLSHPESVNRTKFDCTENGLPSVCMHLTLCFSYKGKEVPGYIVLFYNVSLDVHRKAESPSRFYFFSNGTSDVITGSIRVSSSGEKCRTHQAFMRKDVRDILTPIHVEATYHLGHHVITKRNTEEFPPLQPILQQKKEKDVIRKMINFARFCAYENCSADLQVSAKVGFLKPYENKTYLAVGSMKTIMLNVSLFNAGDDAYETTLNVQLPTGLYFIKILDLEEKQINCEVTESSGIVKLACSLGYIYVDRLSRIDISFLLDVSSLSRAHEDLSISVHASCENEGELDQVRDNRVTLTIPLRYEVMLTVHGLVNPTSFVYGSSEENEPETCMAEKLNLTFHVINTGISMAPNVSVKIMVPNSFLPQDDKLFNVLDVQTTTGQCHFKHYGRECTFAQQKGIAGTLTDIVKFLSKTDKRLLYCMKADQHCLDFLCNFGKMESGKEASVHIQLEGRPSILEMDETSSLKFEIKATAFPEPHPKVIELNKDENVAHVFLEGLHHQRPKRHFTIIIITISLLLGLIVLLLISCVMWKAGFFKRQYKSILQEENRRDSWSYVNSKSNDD
α4β1 integrin on mouse B16 melanoma cells and mouse RAW macrophage cells, sequence (P09055 21-798, chain 2 of 2): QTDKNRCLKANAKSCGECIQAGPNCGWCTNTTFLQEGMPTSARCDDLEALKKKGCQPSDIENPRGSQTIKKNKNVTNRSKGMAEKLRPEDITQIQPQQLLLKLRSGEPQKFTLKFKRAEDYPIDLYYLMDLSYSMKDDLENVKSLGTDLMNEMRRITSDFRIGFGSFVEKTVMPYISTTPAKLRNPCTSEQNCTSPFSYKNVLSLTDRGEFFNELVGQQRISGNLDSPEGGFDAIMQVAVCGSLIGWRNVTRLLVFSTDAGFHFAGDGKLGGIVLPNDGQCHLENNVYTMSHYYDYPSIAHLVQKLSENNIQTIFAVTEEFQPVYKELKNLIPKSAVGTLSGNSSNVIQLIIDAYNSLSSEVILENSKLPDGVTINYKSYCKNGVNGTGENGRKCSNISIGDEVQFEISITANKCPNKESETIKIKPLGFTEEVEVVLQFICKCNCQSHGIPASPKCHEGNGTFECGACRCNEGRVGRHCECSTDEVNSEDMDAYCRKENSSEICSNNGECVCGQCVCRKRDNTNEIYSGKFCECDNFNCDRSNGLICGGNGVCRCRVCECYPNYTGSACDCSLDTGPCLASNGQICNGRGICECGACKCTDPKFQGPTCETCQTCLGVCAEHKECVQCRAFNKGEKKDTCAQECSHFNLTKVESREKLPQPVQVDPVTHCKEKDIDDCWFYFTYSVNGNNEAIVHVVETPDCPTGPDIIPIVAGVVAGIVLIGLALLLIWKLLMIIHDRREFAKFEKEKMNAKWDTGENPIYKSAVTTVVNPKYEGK

α9β1 integrin on mouse RAW macrophage cells, sequence (B8JK39 29-1036, chain 1 of 2): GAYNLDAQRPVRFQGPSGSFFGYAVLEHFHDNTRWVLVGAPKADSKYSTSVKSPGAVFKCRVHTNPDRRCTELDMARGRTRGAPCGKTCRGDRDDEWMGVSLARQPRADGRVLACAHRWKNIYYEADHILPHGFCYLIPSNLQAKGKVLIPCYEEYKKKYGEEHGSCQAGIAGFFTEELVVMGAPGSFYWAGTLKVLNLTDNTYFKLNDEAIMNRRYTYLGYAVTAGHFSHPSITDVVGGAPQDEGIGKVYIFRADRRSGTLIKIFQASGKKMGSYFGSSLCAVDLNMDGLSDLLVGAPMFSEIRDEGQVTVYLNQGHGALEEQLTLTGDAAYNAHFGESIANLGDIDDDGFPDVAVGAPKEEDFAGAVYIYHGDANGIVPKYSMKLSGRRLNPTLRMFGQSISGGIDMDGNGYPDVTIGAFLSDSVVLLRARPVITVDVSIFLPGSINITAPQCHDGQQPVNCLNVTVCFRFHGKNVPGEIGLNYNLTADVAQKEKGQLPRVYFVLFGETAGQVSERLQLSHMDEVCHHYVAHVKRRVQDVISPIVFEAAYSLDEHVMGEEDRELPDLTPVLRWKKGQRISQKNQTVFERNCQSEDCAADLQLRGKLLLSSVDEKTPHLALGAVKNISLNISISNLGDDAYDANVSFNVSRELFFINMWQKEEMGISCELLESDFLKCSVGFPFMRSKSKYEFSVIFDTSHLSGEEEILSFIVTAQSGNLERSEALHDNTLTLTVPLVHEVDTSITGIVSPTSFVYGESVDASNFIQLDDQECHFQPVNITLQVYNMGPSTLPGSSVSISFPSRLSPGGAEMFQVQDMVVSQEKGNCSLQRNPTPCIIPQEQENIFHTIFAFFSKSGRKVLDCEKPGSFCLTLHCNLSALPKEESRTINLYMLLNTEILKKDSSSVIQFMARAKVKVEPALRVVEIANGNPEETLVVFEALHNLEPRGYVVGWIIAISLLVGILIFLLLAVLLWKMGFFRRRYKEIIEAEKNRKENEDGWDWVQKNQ
α9β1 integrin on mouse RAW macrophage cells, sequence (P09055 21-798, chain 2 of 2): as the sequence (P09055 21-798, chain 2 of 2) above

PGE2 secretion in RAW cells [1]: ~4.2 fold
B16 cell adhesion [2]: ~3.5 fold
PGE2 secretion in RAW cells [2]: ~4.2 fold
Binder: RGDSVVYGLR (ligand) [Thrombin-cleaved OPN-Arg (OPN-R)]
